The source of these data is article PMC11372217 (Nature Communications, 2024).

The experiment concerns the target His-PADI4 (human, UniProt Q9UM07 1-663). Nature of the experiment: pull-down.

His-PADI4, sequence (Q9UM07 whole entry): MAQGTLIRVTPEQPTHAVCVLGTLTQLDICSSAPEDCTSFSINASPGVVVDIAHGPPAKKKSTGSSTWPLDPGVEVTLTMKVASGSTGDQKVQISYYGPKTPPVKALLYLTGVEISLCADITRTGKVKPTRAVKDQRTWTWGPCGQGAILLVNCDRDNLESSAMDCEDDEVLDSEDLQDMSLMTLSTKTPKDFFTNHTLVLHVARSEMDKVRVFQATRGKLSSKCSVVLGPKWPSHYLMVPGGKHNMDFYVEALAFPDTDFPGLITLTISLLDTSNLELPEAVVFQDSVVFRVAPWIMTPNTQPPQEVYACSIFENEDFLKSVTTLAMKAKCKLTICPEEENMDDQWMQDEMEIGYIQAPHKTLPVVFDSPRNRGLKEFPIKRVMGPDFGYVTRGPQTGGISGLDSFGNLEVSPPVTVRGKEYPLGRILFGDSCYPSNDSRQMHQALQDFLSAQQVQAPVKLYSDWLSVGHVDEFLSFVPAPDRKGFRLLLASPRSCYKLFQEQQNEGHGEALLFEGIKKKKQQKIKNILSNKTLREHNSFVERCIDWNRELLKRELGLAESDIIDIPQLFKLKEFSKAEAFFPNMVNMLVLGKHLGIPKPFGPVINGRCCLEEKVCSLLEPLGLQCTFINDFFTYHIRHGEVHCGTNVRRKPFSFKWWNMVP

B1: GST-HIF-1α (575-786) (domain or fragment, human, UniProt Q16665 575-786, looked up)
chain: RSFDQLSPLESSSASPESASPQSTVTVFQQTQIQEPTANATTTTATTDELKTVTKDRMEDIKILIASPSPTHIHKETTSATSSPYRDTQSRTASPNRAGKGVIEQTEKSHPRSPNVLSVALSQRTTVPEEELNPKILALQNAQRKRKMEHDGSLFQAVGIGTLLQQPDDHAATTSLSWKRVKGCKSSEQNGMEQKTIILIPSDLACRLLGQS
B1: the binding result was “binds”.
